From paper PMC4260750

Target: ADAM10 (endogenous, rat brain) (UniProt Q10743)
Assay: GST pull-down from rat brain homogenate
Conditions: reference: GST-SAP97wt, PKC-treated; sites T629

- binding against the reference: weaker
Substance: SAP97 (GST-SAP97 and YFP-SAP97 constructs) (from UniProt Q62696) GST-SAP97-T629A, PKC-treated
